Our source for the stoichiometry N and response values is PMC6821130.

Values joined by “and” are separate entries in the source; they are usually repeats but may differ in a detail not shown here. Equal values may be shown once.

Test [1] concerns the target 6XHis-PilT (Vibrio cholerae). The test can be described thus: negative-stain electron microscopy.
Test [2] has as its target 6XHis-PilU (Vibrio cholerae). The test can be described thus: negative-stain electron microscopy.
For test [3], the target named is 6xHis-PilT^K136A (Vibrio cholerae). The test can be described thus: negative-stain electron microscopy.
For test [4], the target named is 6xHis-PilU^K134A (Vibrio cholerae). The test can be described thus: negative-stain electron microscopy.
Test [5] deals with PilC (full length, fused to the T18 or T25 fragment of adenylate cyclase) (UniProt Q9X4G9). The experiment in a line: BACTH Miller assay. The settings on record: read off a plot.
UniProt Q9X4G9, sequence (Q9X4G9 whole entry, the tested form may be a part): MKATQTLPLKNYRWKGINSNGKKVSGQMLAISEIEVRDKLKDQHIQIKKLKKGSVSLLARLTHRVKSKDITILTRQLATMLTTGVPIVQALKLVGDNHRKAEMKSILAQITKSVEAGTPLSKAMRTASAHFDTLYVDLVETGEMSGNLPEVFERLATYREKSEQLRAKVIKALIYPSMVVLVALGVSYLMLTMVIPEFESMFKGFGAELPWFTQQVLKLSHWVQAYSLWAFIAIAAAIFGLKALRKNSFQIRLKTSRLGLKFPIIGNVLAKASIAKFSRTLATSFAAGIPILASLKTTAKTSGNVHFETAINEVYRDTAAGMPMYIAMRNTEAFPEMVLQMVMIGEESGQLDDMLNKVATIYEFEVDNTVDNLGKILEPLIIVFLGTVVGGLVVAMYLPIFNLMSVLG
Test [6] concerns the target PilT^K136A (full length, fused to the T18 or T25 fragment of adenylate cyclase). The test can be described thus: BACTH Miller assay. The conditions noted are these: read off a plot.
Test [7] addresses PilT (full length, fused to the T18 or T25 fragment of adenylate cyclase). The experiment in a line: BACTH Miller assay. The settings on record: read off a plot.
The target of test [8] is PilU (full length, fused to the T18 or T25 fragment of adenylate cyclase). The experiment in a line: BACTH Miller assay. The conditions noted are these: read off a plot.
Test [9] deals with PilU^K134A (full length, fused to the T18 or T25 fragment of adenylate cyclase). The test can be described thus: BACTH Miller assay. The conditions noted are these: parent: est. 180; read off a plot.

As for 6XHis-PilT (enzyme), the stoichiometry N (as a rule, the number of molecules, sites or subunits per partner or assembly) in test [1] turned out to be 6.

In the case of 6XHis-PilU (enzyme), the stoichiometry N in [2] turned out to be 6.

6xHis-PilT^K136A (enzyme) gave a stoichiometry N in test [3] of 6.

6xHis-PilU^K134A (enzyme): the stoichiometry N in [4] stood at 6.

On to “PilT (full length, fused to the T18 or T25 fragment of adenylate cyclase) K136A”, for which the response in [5] (parent: est. 90) was 80 Miller Units; in test [5] (parent: est. 120), 110 Miller Units; in test [6] (parent: est. 170), 85 Miller Units; in test [7] (parent: est. 170), 170 Miller Units and 160 Miller Units; in test [8] (parent: est. 65), 8.5 Miller Units; in test [8] (parent: est. 110), 78 Miller Units.

Consider “PilU (full length, fused to the T18 or T25 fragment of adenylate cyclase) K134A”, for which the response in [5] (parent: est. 55) was 75 Miller Units; in test [5] (parent: est. 100), 110 Miller Units; in test [7] (parent: est. 65), 85 Miller Units; in [7] (parent: est. 110), 78 Miller Units; in test [8] (parent: est. 180), 180 Miller Units and 220 Miller Units; in [9], 140 Miller Units.

Consider m2; m1 PilU:K134A; PilT:K136A, for which the response in test [6] (parent: est. 65) is 11 Miller Units; in test [6] (parent: est. 110), 48 Miller Units.
